This assay has as its target T1, G-CSFR/gp130 chimera proteins (Homo sapiens, UniProt P40189+Q99062).
T1 construct: the extracellular domain of the human G-CSF receptor fused to the full transmembrane domain; expressed in transfected cells; host or cells: F11 cells
T1 sequence (Q99062+P40189 with tags, fused parts or gaps): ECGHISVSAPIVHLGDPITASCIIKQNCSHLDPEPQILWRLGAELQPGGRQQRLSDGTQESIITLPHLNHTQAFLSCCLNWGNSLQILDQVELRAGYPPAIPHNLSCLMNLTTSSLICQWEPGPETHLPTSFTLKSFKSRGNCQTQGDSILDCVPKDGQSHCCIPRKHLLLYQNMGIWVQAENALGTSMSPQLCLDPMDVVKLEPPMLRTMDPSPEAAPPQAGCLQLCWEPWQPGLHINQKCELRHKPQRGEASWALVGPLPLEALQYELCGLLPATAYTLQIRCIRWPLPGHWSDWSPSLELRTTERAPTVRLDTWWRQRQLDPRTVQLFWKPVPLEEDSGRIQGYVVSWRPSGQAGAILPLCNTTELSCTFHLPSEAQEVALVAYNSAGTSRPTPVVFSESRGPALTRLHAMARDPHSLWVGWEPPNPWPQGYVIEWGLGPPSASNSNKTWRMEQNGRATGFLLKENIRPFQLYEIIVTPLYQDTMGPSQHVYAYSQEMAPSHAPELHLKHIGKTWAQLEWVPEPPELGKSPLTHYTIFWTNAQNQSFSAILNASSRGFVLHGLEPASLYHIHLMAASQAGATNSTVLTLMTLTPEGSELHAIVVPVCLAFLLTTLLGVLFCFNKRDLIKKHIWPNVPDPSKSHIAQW
In words: G-CSF stimulation of G-CSFR/gp130 chimera proteins in F11 cells, cell mortality by Trypan blue exclusion. Type of assay: cell-based. The settings on record: 100 nM; G-25 expressed. On the procedure: B) F11 cells were transfected with 0.5 μg of the pcDNA3 vector or pcDNA3-APP in association with 0.5 μg of the pEFBos vector or the pEFBos vectors encoding the extracellular domain of the human G-CSF receptor fused to the full transmembrane domain and a C-terminally truncated intracytoplasmic domain of gp130 (named “G-CSFR/gp130”). G-CSFR/gp130 (277) contains the full intracytoplasmic domain of gp130 corresponding to amino acids 1-277, while G-CSFR/gp130 (25), (68), and (133) contain the intracytoplasmic domains corresponding to amino acids 1-25, 1-68, and 1-133, respectively. At 24 hr after transfection, the cells were added with indicated amounts of human G-CSF. Cell mortality was determined by Trypan blue exclusion assay at 72 hr after transfection. The results of immunoblot analysis of the expression of […] are shown in photos.
C) Instead of the pcDNA3-V6421-APP vector, pcDNA3-K595 N/M596L-APP (NL-APP), M146L-PS1 and N141-I-PS2 vectors were used to do the same experiments as in FIG. 2A. The results of immunoblot analysis of the expression of NL-APP, M146L-PS1 and N141-I-PS2 are shown in photos.
D) F11 cells were transfected with 0.5 μg of the pEFBos vector or pEF-G85R-SOD1 in association with 0.5 μg of the pEFBos vector or each pEFBos vector encoding G-CSFR/gp130 (277) or G-CSFR/gp130 (25). At 24 hr after transfection, the cells were added with indicated amounts of human G-CSF. Cell mortality was determined by Trypan blue exclusion assay at 72 hr after transfection. The results of the expression of G85R-SOD1, which were confirmed by the immunoblot analysis, are shown in photos.
Neurohybrid F11 cells and pcDNA3 vectors encoding V642I-APP, K595N/M596L-APP (NL-APP), M146L-PS1, and N141I-PS2 cDNA were prepared as already described (Hashimoto et al, 2000, 2001a, 2003). pCAG-human gp130 and pCAG-human gp130 ED (the extracellular domain of human gp130) were prepared as described (Kumanogoh et al., 1997). pcDNA3 vectors encoding the extracellular domain of the G-CSF receptor fused to the full-length transmembrane domain and various portions of the intracellular domains of human gp130, were prepared as described (Fukada et al, 1996). The intracellular domain of gp130 was C-terminally truncated. A chimera protein named G-277 contained a 277 amino acid-long full intracellular domain of gp130 (SEQ ID NO:35), while G-195, G-133, G-68, and G-25 contained the amino acids 1-195 (SEQ ID NO:36), 1-133 (SEQ ID NO:37), 1-68 (SEQ ID NO:38), and 1-25 (SEQ ID NO:39) intracellular portions, respectively. C-terminally myc-tagged human WSX-1 and myc-tagged mouse CREME9 cDNAs were amplified from human and mouse embryo cDNA (BioChain) by PCR using sets of sense primers and antisense primers: 5′-[…]-3′ (SEQ ID NO:3) and 5′-[…]-3′ (SEQ ID NO:4) for human WSX-1; 5′-[…]-3′ (SEQ ID NO:5); and 5′-[…]-3′ (SEQ ID NO:6) for mouse CREME9. Plasmids encoding C-terminally V5-tagged human CNTF-R (V %-CNTF-R) and rat IL-6R (pUCM18-rat IL-6R) were purchased from Invitrogen and American Culture Collection, respectively. A pEFBos vector comprising familial ALS (FALS) gene G85R-SOD1 was kindly provided by Dr. Shoji Tsuji. Cosmid of human wild […] was constructed by inserting a full-length gp130 into a SwaI site of pAxCAwt (TaKaRa).
The transfection procedures were as described (Hashimoto et al, 2000, 2001a, 2003). F11 cells, seeded at 7×10^4/well in 6-well dishes, were transfected with indicated vectors. Transfection efficiency in these protocols has been determined to be invariably around 70%. At 72 hrs after transfection, the Trypan blue exclusion assay and LDH assay were performed as a cell-death assay and the WST-8 assay was performed as cell-viability assays (Hashimoto et al, 2000, 2001a b, 2003). HN was added to the culture medium usually at 5 hrs after transfection, but in some cases at 24 hrs after transfection.

B1: G-CSF: human G-CSF, ligand stimulating G-CSFR/gp130 chimera proteins (protein, UniProt P09919 31-207, looked up)
Granulocyte …: TPLGPASSLPQSFLLKCLEQVRKIQGDGAALQEKLVSECATYKLCHPEELVLLGHSLGIPWAPLSSCPSQALQLAGCLSQLHSGLFLYQGLLQALEGISPELGPTLDTLQLDVADFATTIWQQMEELGMAPALQPTQGAMPAFASAFQRRAGGVLVASHLQSFLEVSYRVLRHLAQP
In the case of B1, the “prevention of NL-APP-, M146L-PS1-, N141I-PS2-mediated neuronal cell death” value was “not”.
